According to PMC3198426:

Columns and labels:
[1] = molecular target: Mitochondrial antiviral signaling protein (MAVS), as HAVI-Fluc-MAVS and Rluc-MAVS-Flag, Q7Z434; test: pull-down; DLR-PD (dual luciferase reporter pull-down): both proteins co-expressed in HEK293; lysate in passive lysis buffer on Streptavidin MagneSphere Paramagnetic Particles in PBS, 30 m to 1 h, room temperature; two washes PBS with 1% Nonidet P 40, one with PBS; the biotinylated HAVI-tagged protein is held, Fluc and Rluc activity read on the beads; in some samples eYFP-MAVS or other activators (IRF3) or HCV …; conditions: remark: other sources report otherwise
[2] = molecular target: T1, Interferon regulatory factor 3 (IRF3), as HAVI-Fluc-IRF3 and Rluc-IRF3-Flag, Q14653; test: as above; conditions: remark: other sources report otherwise
T1 chain: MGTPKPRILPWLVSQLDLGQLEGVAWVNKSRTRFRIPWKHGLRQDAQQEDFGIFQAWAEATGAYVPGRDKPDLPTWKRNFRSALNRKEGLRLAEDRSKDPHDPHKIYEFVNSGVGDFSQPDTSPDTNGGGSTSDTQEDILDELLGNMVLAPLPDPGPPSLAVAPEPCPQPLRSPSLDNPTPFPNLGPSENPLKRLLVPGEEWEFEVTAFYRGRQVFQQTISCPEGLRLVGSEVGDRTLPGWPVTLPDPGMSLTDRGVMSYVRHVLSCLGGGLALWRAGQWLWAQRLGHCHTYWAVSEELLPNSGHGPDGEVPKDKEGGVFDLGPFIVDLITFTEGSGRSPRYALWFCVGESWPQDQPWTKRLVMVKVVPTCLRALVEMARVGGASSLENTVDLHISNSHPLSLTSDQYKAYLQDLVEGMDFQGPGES

[3] = molecular target: MAVS cleaved by HCV NS3/4A (HAVI-Fluc-MAVS and Rluc-MAVS co-expressed with NS3/4A); test: pull-down; DLR-PD (dual luciferase reporter pull-down): both proteins co-expressed in HEK293; lysate in passive lysis buffer on Streptavidin MagneSphere Paramagnetic Particles in PBS, 30 m to 1 h, room temperature; two washes PBS with 1% Nonidet P 40, one with PBS; the biotinylated HAVI-tagged protein is held, Fluc and Rluc activity read on the beads; in some samples eYFP-MAVS or other activators (IRF3) or HCV NS3/4A (MAVS) co-expressed

B1: Mitochondrial antiviral signaling protein (MAVS), as HAVI-Fluc-MAVS and Rluc-MAVS-Flag, Q7Z434 1-540 (natural protein)
chain: MPFAEDKTYKYICRNFSNFCNVDVVEILPYLPCLTARDQDRLRATCTLSGNRDTLWHLFNTLQRRPGWVEYFIAALRGCELVDLADEVASVYQSYQPRTSDRPPDPLEPPSLPAERPGPPTPAAAHSIPYNSCREKEPSYPMPVQETQAPESPGENSEQALQTLSPRAIPRNPDGGPLESSSDLAALSPLTSSGHQEQDTELGSTHTAGATSSLTPSRGPVSPSVSFQPLARSTPRASRLPGPTGSVVSTGTSFSSSSPGLASAGAAEGKQGAESDQAEPIICSSGAEAPANSLPSKVPTTLMPVNTVALKVPANPASVSTVPSKLPTSSKPPGAVPSNALTNPAPSKLPINSTRAGMVPSKVPTSMVLTKVSASTVPTDGSSRNEETPAAPTPAGATGGSSAWLDSSSENRGLGSELSKPGVLASQVDSPFSGCFEDLAISASTSLGMGPCHGPEENEYKSEGTFGIHVAENPSIQLLEGNPGPPADPDGGPRPQADRKFQEREVPCHRPSPGALWLQVAVTGVLVVTLLVVLYRRRLH
modifications: here or on the partner: biotin on a specific lysine residue of the Avi tag (by co-expressed BirA), on the HAVI-Fluc copy; biotin on a specific lysine residue of the Avi tag (by co-expressed BirA), on the HAVI-Fluc copy
Work on B1 yielded an activity ratio of Rluc/Fluc on the beads (Rluc/Fluc activity ratio) [1] of 0.28, a fold of the percentage of Rluc on the beads over the three negative controls [1] of over 6 fold and a percentage of Rluc on the beads compared with the cell lysate [1] of 0.13%.

B2: Interferon regulatory factor 3 (IRF3), as HAVI-Fluc-IRF3 and Rluc-IRF3-Flag, Q14653 1-427 (natural protein)
chain: T1 chain
modifications: here or on the partner: biotin on a specific lysine residue of the Avi tag (by co-expressed BirA), on the HAVI-Fluc copy; biotin on a specific lysine residue of the Avi tag (by co-expressed BirA), on the HAVI-Fluc copy
B2 showed an activity ratio of Rluc/Fluc on the beads (10 ng MAVS vector, as the sentence says) (Rluc/Fluc activity ratio) [2] of 0.01, an activity ratio of Rluc/Fluc on the beads (100 ng MAVS vector) (Rluc/Fluc activity ratio) [2] of 0.75 and a fold increase of the IRF3 dimerization ratio (overexpressed IKKε) [2] of under 1000 fold. It also gave a fold of the percentage of Rluc on the beads over the negative control (10 ng of the MAVS vector) [2] of 27 fold.

B3: Rluc-TRAF3-Flag, Q13114 1-568 (natural protein)
chain: MESSKKMDSPGALQTNPPLKLHTDRSAGTPVFVPEQGGYKEKFVKTVEDKYKCEKCHLVLCSPKQTECGHRFCESCMAALLSSSSPKCTACQESIVKDKVFKDNCCKREILALQIYCRNESRGCAEQLMLGHLLVHLKNDCHFEELPCVRPDCKEKVLRKDLRDHVEKACKYREATCSHCKSQVPMIALQKHEDTDCPCVVVSCPHKCSVQTLLRSELSAHLSECVNAPSTCSFKRYGCVFQGTNQQIKAHEASSAVQHVNLLKEWSNSLEKKVSLLQNESVEKNKSIQSLHNQICSFEIEIERQKEMLRNNESKILHLQRVIDSQAEKLKELDKEIRPFRQNWEEADSMKSSVESLQNRVTELESVDKSAGQVARNTGLLESQLSRHDQMLSVHDIRLADMDLRFQVLETASYNGVLIWKIRDYKRRKQEAVMGKTLSLYSQPFYTGYFGYKMCARVYLNGDGMGKGTHLSLFFVIMRGEYDALLPWPFKQKVTLMLMDQGSSRRHLGDAFKPDPNSSSFKKPTGEMNIASGCPVFVAQTVLENGTYIKDDTIFIKVIVDTSDLPDP
modifications: here or on the partner: biotin on a specific lysine residue of the Avi tag (by co-expressed BirA), on the HAVI-Fluc copy
B3 was tested, and the activity ratio of Rluc/Fluc on the beads (Rluc/Fluc activity ratio) [1] was 2.29, the fold of the percentage of Rluc on the beads over the three negative controls [1] was over 26 fold and the percentage of Rluc on the beads compared with the cell lysate [1] was 1.85%.

B4: Rluc-TRAF3-Flag (natural protein)
chain: B3 chain
For B4, the activity ratio of Rluc/Fluc on the beads (100 ng NS3/4A vector) (Rluc/Fluc activity ratio) [3] was 0.956.
